Laboratory results: JP2022028645A (dated 2022)
Numbering of substitutions follows the chain as printed. Names may count otherwise.

Experiments:
[1] = biological target: T1, Human EGFRvIII expressed on cells (CHO-EGFRvIII, DK-MG, U87MG-EGFRvIII) (human, UniProt P00533 298-1210); test: flow cytometry on CHO-EGFRvIII and EGFRvIII-positive DK-MG cells
T1 construct: also called EGFRvIII; huEGFRvIII

[2] = biological target: T1, Human EGFRvIII expressed on cells …; test: SPR and flow cytometry on U87MG-EGFRvIII and MKN-45 cells, compared with the parental binder
[3] = biological target: T1, Human EGFRvIII expressed on cells …; test: flow cytometry on CHO-EGFRvIII cells, TCB against the corresponding IgG
[4] = biological target: T2, EGFRvIII-ECD avi his (extracellular domain of human EGFRvIII fused to C-terminal Avi-tag and His-tag) (human); test: SPR (Biacore T200), TCB (5 nM) captured by anti-Fc antibody, EGFRvIII-ECD avi his 3-fold dilution series as analyte, 1:1 Langmuir fit
T2 construct: also called 組み換えEGFRvIII; EGFRvIII抗原

[5] = biological target: T3, Recombinant cynomolgus CD3 antigen: heterodimer of cynomolgus CD3 delta and CD3 epsilon ectodomains fused to … (cynomolgus monkey); test: SPR (Biacore T200), TCB captured at 20 nM by anti-PGLALA antibody, CD3 antigen as analyte, 1:1 Langmuir fit
T3 construct: also called カニクイザルCD3

[6] = biological target: T4, Recombinant human CD3 antigen: heterodimer of CD3 delta and CD3 epsilon ectodomains fused to human Fc domain … (human); test: as above
T4 construct: also called 組換えCD3; ヒトCD3

[7] = biological target: T3, Recombinant cynomolgus CD3 antigen: …; test: SPR (Biacore T200), TCB captured by anti-PGLALA antibody, CD3 antigen 12.35-3000 nM as analyte, 1:1 Langmuir fit
[8] = biological target: T4, Recombinant human CD3 antigen: …; test: as above
[9] = biological target: T5, Cynomolgus TYRP1 extracellular domain (ECD), monomeric fusion to human Fc domain with knob-into-hole and PG … (cynomolgus monkey, UniProt P01857 104-328 = IgG part); test: SPR (Biacore T200), TYRP1 ECD-Fc captured by anti-PGLALA antibody, Fab 3-fold dilution series as analyte, 1:1 Langmuir fit
T5 construct: also called カニクイザルTYRP1

[10] = biological target: T6, Mouse TYRP1 extracellular domain (ECD), monomeric fusion to human Fc domain with knob-into-hole and PG LALA … (mouse, UniProt P01857 104-328 = IgG part); test: as above
T6 construct: also called マウスTYRP1

[11] = biological target: T7, Human TYRP1 extracellular domain (ECD), monomeric fusion to human Fc domain with knob-into-hole and PG LALA … (human, UniProt P01857 104-328 = IgG part); test: as above
T7 construct: also called ヒトTYRP1

[12] = biological target: T4, Recombinant human CD3 antigen: …; test: SPR (Biacore T200), antibody captured by anti-Fab, CD3 antigen 10 ug/ml, relative active concentration after 14 days of temperature stress

B1: EGFRvIII IgG PGLALA P056.021 (antibody, human IgG1, V domains shown)
VH: EVQLVQSGAEVKKPGESLKISCKGSGYSFDSYWIAWVRQMPGKGLEWMGVIHPYDSDTRYSPSFQGQVTISADKSISTAYLQWSSLKASDTAMYYCARVSRSSYAFDYWGQGTLVTVSS
VL: not shown
notes: Human IgG1 with P329G L234A L235A; also called P056.021
- binding result [1]: binds

B2: EGFRvIII IgG PGLALA P063.056 (affinity-matured EGFRvIII binder) (antibody, human IgG1, V domains shown)
VH: B1 VH
VL: not shown
notes: Human IgG1 PGLALA; also called P063.056
- binding result [2]: binds

B3: EGFRvIII TCB P056.021 (with CD3orig, 2+1 IgG CrossFab inverted) (bispecific antibody, V domains shown)
VH 1: B1 VH
VL 1: not shown
VH 2: not shown
VL 2: QAVVTQEPSLTVSPGGTVTLTCGSSTGAVTTSNYANWVQEKPGQAFRGLIGGTNKRAPGTPARFSGSLLGGKAALTLSGAQPEDEAEYYCALWYSNLWVFGGGTKLTVL
notes: only the variable domains can be tied to it; also called P056.021 EGFRvIII TCB; parental EGFRvIII TCB
- binding result [3]: binds

B4: EGFRvIII TCB CD3 opt (EGFRvIII binder P063.056 and optimized CD3 binder, 2+1 IgG CrossFab inverted) (bispecific antibody)
heavy 1: not shown
heavy 2: EVQLVQSGAEVKKPGESLKISCKGSGYSFDSYWIAWVRQMPGKGLEWMGVIHPYDSDTRYSPSFQGQVTISADKSISTAYLQWSSLKASDTAMYYCARVSRSSYAFDYWGQGTLVTVSSASTKGPSVFPLAPSSKSTSGGTAALGCLVEDYFPEPVTVSWNSGALTSGVHTFPAVLQSSGLYSLSSVVTVPSSSLGTQTYICNVNHKPSNTKVDEKVEPKSCDKTHTCPPCPAPEAAGGPSVFLFPPKPKDTLMISRTPEVTCVVVDVSHEDPEVKFNWYVDGVEVHNAKTKPREEQYNSTYRVVSVLTVLHQDWLNGKEYKCKVSNKALGAPIEKTISKAKGQPREPQVCTLPPSRDELTKNQVSLSCAVKGFYPSDIAVEWESNGQPENNYKTTPPVLDSDGSFFLVSKLTVDKSRWQQGNVFSCSVMHEALHNHYTQKSLSLSP
light 1: not shown
light 2: EVQLLESGGGLVQPGGSLRLSCAASGFQFSSYAMNWVRQAPGKGLEWVSRIRSKYNNYATYYADSVKGRFTISRDDSKNTLYLQMNSLRAEDTAVYYCVRHTTFPSSYVSYYGYWGQGTLVTVSSASVAAPSVFIFPPSDEQLKSGTASVVCLLNNFYPREAKVQWKVDNALQSGNSQESVTEQDSKDSTYSLSSTLTLSKADYEKHKVYACEVTHQGLSSPVTKSFNRGEC
notes: Chain roles inferred as for TYRP1 TCB; also called EGFRvIII TCB; P063.056 EGFRvIII TCB with CD3opt
- Kd [4]: 6 nM
- Kd [5]: 20 nM
- Kd [6]: 30 nM

B5: TYRP1 TCB CD3 opt (T cell bispecific antibody to CD3 and TYRP1 with optimized CD3 binder, 2+1 IgG CrossFab inverted, charge modifications, PGLALA) (bispecific antibody)
heavy 1: not shown
heavy 2: QVQLVQSGAEVKKPGASVKVSCKASGFNIKDYFLHWVRQAPGQGLEWMGWINPDNGNTVYAQKFQGRVTMTADTSTSTVYMELSSLRSEDTAVYYCTRRDYTYEKAALDYWGQGTLVTVSSASTKGPSVFPLAPSSKSTSGGTAALGCLVEDYFPEPVTVSWNSGALTSGVHTFPAVLQSSGLYSLSSVVTVPSSSLGTQTYICNVNHKPSNTKVDEKVEPKSCDKTHTCPPCPAPEAAGGPSVFLFPPKPKDTLMISRTPEVTCVVVDVSHEDPEVKFNWYVDGVEVHNAKTKPREEQYNSTYRVVSVLTVLHQDWLNGKEYKCKVSNKALGAPIEKTISKAKGQPREPQVCTLPPSRDELTKNQVSLSCAVKGFYPSDIAVEWESNGQPENNYKTTPPVLDSDGSFFLVSKLTVDKSRWQQGNVFSCSVMHEALHNHYTQKSLSLSP
light 1: DIQMTQSPSSLSASVGDRVTITCRASGNIYNYLAWYQQKPGKVPKLLIYDAKTLADGVPSRFSGSGSGTDFTLTISSLQPEDVATYYCQHFWSLPFTFGQGTKLEIKRTVAAPSVFIFPPSDRKLKSGTASVVCLLNNFYPREAKVQWKVDNALQSGNSQESVTEQDSKDSTYSLSSTLTLSKADYEKHKVYACEVTHQGLSSPVTKSFNRGEC
light 2: B4 light 2
notes: also called TYRP1 TCB; TYRP-1 TCB
- Kd [7]: 20 nM
- Kd [8]: 50 nM

B6: TYRP1 TCB CD3 orig (T cell bispecific antibody to CD3 and TYRP1 with original CD3 binder, 2+1 IgG CrossFab inverted) (bispecific antibody)
heavy 1: not shown
heavy 2: B5 heavy 2
light 1: B5 light 1
light 2: B4 light 2 with Q28T, S31T, T102G, T103N, P105G, S106N, Y111W, Y112F, G113A
notes: chain roles inferred as for the CD3opt molecule
- Kd [8]: 50 nM

B7: EGFRvIII TCB CD3 orig (EGFRvIII binder P063.056 and original CD3 binder, 2+1 IgG CrossFab inverted) (bispecific antibody)
heavy 1: not shown
heavy 2: B4 heavy 2
light 1: not shown
light 2: B4 light 2 with Q28T, S31T, T102G, T103N, P105G, S106N, Y111W, Y112F, G113A
notes: chain roles inferred; also called P063.056 EGFRvIII TCB with CD3orig
- Kd [4]: 6 nM
- Kd [6]: 40 nM

B8: TYRP1 Fab断片 (Fab fragment of the humanized TA99-derived TYRP1 binder, made by plasmin digestion of the corresponding antibody) (Fab, V domains shown)
VH: QVQLVQSGAEVKKPGASVKVSCKASGFNIKDYFLHWVRQAPGQGLEWMGWINPDNGNTVYAQKFQGRVTMTADTSTSTVYMELSSLRSEDTAVYYCTRRDYTYEKAALDYWGQGTLVTVSS
VL: DIQMTQSPSSLSASVGDRVTITCRASGNIYNYLAWYQQKPGKVPKLLIYDAKTLADGVPSRFSGSGSGTDFTLTISSLQPEDVATYYCQHFWSLPFTFGQGTKLEIK
notes: also called TYRP1 Fab
- Kd [9]: 0.18 nM
- Kd [10]: 0.53 nM
- Kd [11]: 0.13 nM

B9: CD3 opt ヒトIgG1 PGLALA (optimized CD3 binder, human IgG1 with P329G L234A L235A) (antibody, V domains shown)
VH: EVQLLESGGGLVQPGGSLRLSCAASGFQFSSYAMNWVRQAPGKGLEWVSRIRSKYNNYATYYADSVKGRFTISRDDSKNTLYLQMNSLRAEDTAVYYCVRHTTFPSSYVSYYGYWGQGTLVTVSS
VL: QAVVTQEPSLTVSPGGTVTLTCGSSTGAVTTSNYANWVQEKPGQAFRGLIGGTNKRAPGTPARFSGSLLGGKAALTLSGAQPEDEAEYYCALWYSNLWVFGGGTKLTVLR
notes: also called CD3opt; CD3opt IgG PGLALA
- binding result [12]: binds
